Experimental data from patent US20180155451A1 (published 2018).

T1: FcγRIIb (human, UniProt P31994 43-217)
T1 construct: extracellular domain; also called FcgRIIb; 2b
T1 sequence (looked up): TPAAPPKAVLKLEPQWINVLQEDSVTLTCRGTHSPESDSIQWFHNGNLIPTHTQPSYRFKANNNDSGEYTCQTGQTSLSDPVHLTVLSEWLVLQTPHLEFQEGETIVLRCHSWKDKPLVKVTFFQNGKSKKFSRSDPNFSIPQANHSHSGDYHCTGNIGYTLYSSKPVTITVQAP


Columns and labels:
FcγRIa = biological target: T2, FcγRIa (human, UniProt P12314 16-292); assay: SPR, captured antibody; relative to GpH7-A5/GpH7-B3/GpL16-k0
T2 construct: extracellular domain; also called FcgRI; 1a
T2 sequence (P12314 16-292): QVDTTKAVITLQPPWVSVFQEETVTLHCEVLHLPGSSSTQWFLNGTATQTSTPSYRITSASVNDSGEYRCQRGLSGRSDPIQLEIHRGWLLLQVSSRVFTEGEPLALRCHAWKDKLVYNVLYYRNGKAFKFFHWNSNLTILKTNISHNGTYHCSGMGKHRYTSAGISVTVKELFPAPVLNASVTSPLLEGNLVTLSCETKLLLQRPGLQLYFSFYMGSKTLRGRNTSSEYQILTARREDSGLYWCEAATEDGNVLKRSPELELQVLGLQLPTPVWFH

FcγRIIb = biological target: T1, FcγRIIb; assay: as above

| Binder | He/Con_1a (FcγRIa) | He/Con_2b (FcγRIIb) |
| --- | --- | --- |
| GpH7-A5/GpH7-B3 variant (E269_02A)/GpL16-k0 (antibody, human IgG1, kappa, IgG1 heterodimer, mutation in the GpH7-B3 chain only; also called He Ab) heavy 1: not shown heavy 2: not shown light: DIVMTQSPLSLPVTPGEPASISCQASESLVHSNRNTYLHWYLQKPGQSPQLLIYKVSNRFSGVPDRFSGSGSGTDFTLKISRVEAEDVGVYYCSQNTHVPPTFGQGTKVEIERTVAAPSVFIFPPSDEQLKSGTASVVCLLNNFYPREAKVQWKVDNALQSGNSQESVTEQDSKDSTYSLSSTLTLSKADYEKHKVYACEVTHQGLSSPVTKSFNRGEC | 104 relative, HeCon Ab = 100 | 49.9 relative, HeCon Ab = 100 |
| GpH7-A5/GpH7-B3 variant (E269_03V)/GpL16-k0 (antibody, human IgG1, kappa, IgG1 heterodimer, mutation in the GpH7-B3 chain only; also called He Ab) heavy 1: not shown heavy 2: not shown light: DIVMTQSPLSLPVTPGEPASISCQASESLVHSNRNTYLHWYLQKPGQSPQLLIYKVSNRFSGVPDRFSGSGSGTDFTLKISRVEAEDVGVYYCSQNTHVPPTFGQGTKVEIERTVAAPSVFIFPPSDEQLKSGTASVVCLLNNFYPREAKVQWKVDNALQSGNSQESVTEQDSKDSTYSLSSTLTLSKADYEKHKVYACEVTHQGLSSPVTKSFNRGEC | 103 relative, HeCon Ab = 100 | 45.1 relative, HeCon Ab = 100 |
| GpH7-A5/GpH7-B3 variant (G236_05P)/GpL16-k0 (antibody, human IgG1, kappa, IgG1 heterodimer, mutation in the GpH7-B3 chain only; also called He Ab) heavy 1: not shown heavy 2: not shown light: DIVMTQSPLSLPVTPGEPASISCQASESLVHSNRNTYLHWYLQKPGQSPQLLIYKVSNRFSGVPDRFSGSGSGTDFTLKISRVEAEDVGVYYCSQNTHVPPTFGQGTKVEIERTVAAPSVFIFPPSDEQLKSGTASVVCLLNNFYPREAKVQWKVDNALQSGNSQESVTEQDSKDSTYSLSSTLTLSKADYEKHKVYACEVTHQGLSSPVTKSFNRGEC | 77 relative, HeCon Ab = 100 | 19 relative, HeCon Ab = 100 |
| GpH7-A5/GpH7-B3 variant (E269_19Q)/GpL16-k0 (antibody, human IgG1, kappa, IgG1 heterodimer, mutation in the GpH7-B3 chain only; also called He Ab) heavy 1: not shown heavy 2: not shown light: DIVMTQSPLSLPVTPGEPASISCQASESLVHSNRNTYLHWYLQKPGQSPQLLIYKVSNRFSGVPDRFSGSGSGTDFTLKISRVEAEDVGVYYCSQNTHVPPTFGQGTKVEIERTVAAPSVFIFPPSDEQLKSGTASVVCLLNNFYPREAKVQWKVDNALQSGNSQESVTEQDSKDSTYSLSSTLTLSKADYEKHKVYACEVTHQGLSSPVTKSFNRGEC | 105 relative, HeCon Ab = 100 | 44.3 relative, HeCon Ab = 100 |
| GpH7-A5/GpH7-B3 variant (E269_13S)/GpL16-k0 (antibody, human IgG1, kappa, IgG1 heterodimer, mutation in the GpH7-B3 chain only; also called He Ab) heavy 1: not shown heavy 2: not shown light: DIVMTQSPLSLPVTPGEPASISCQASESLVHSNRNTYLHWYLQKPGQSPQLLIYKVSNRFSGVPDRFSGSGSGTDFTLKISRVEAEDVGVYYCSQNTHVPPTFGQGTKVEIERTVAAPSVFIFPPSDEQLKSGTASVVCLLNNFYPREAKVQWKVDNALQSGNSQESVTEQDSKDSTYSLSSTLTLSKADYEKHKVYACEVTHQGLSSPVTKSFNRGEC | 103 relative, HeCon Ab = 100 | 47.8 relative, HeCon Ab = 100 |
| GpH7-A5/GpH7-B3 variant (E269_07I)/GpL16-k0 (antibody, human IgG1, kappa, IgG1 heterodimer, mutation in the GpH7-B3 chain only; also called He Ab) heavy 1: not shown heavy 2: not shown light: DIVMTQSPLSLPVTPGEPASISCQASESLVHSNRNTYLHWYLQKPGQSPQLLIYKVSNRFSGVPDRFSGSGSGTDFTLKISRVEAEDVGVYYCSQNTHVPPTFGQGTKVEIERTVAAPSVFIFPPSDEQLKSGTASVVCLLNNFYPREAKVQWKVDNALQSGNSQESVTEQDSKDSTYSLSSTLTLSKADYEKHKVYACEVTHQGLSSPVTKSFNRGEC | 103 relative, HeCon Ab = 100 | 43.9 relative, HeCon Ab = 100 |
| GpH7-A5/GpH7-B3 variant (E269_08L)/GpL16-k0 (antibody, human IgG1, kappa, IgG1 heterodimer, mutation in the GpH7-B3 chain only; also called He Ab) heavy 1: not shown heavy 2: not shown light: DIVMTQSPLSLPVTPGEPASISCQASESLVHSNRNTYLHWYLQKPGQSPQLLIYKVSNRFSGVPDRFSGSGSGTDFTLKISRVEAEDVGVYYCSQNTHVPPTFGQGTKVEIERTVAAPSVFIFPPSDEQLKSGTASVVCLLNNFYPREAKVQWKVDNALQSGNSQESVTEQDSKDSTYSLSSTLTLSKADYEKHKVYACEVTHQGLSSPVTKSFNRGEC | 104 relative, HeCon Ab = 100 | 42.9 relative, HeCon Ab = 100 |
| GpH7-A5/GpH7-B3 variant (E269_15Y)/GpL16-k0 (antibody, human IgG1, kappa, IgG1 heterodimer, mutation in the GpH7-B3 chain only; also called He Ab) heavy 1: not shown heavy 2: not shown light: DIVMTQSPLSLPVTPGEPASISCQASESLVHSNRNTYLHWYLQKPGQSPQLLIYKVSNRFSGVPDRFSGSGSGTDFTLKISRVEAEDVGVYYCSQNTHVPPTFGQGTKVEIERTVAAPSVFIFPPSDEQLKSGTASVVCLLNNFYPREAKVQWKVDNALQSGNSQESVTEQDSKDSTYSLSSTLTLSKADYEKHKVYACEVTHQGLSSPVTKSFNRGEC | 106 relative, HeCon Ab = 100 | 44.7 relative, HeCon Ab = 100 |
| GpH7-A5/GpH7-B3 variant (E269_16H)/GpL16-k0 (antibody, human IgG1, kappa, IgG1 heterodimer, mutation in the GpH7-B3 chain only; also called He Ab) heavy 1: not shown heavy 2: not shown light: DIVMTQSPLSLPVTPGEPASISCQASESLVHSNRNTYLHWYLQKPGQSPQLLIYKVSNRFSGVPDRFSGSGSGTDFTLKISRVEAEDVGVYYCSQNTHVPPTFGQGTKVEIERTVAAPSVFIFPPSDEQLKSGTASVVCLLNNFYPREAKVQWKVDNALQSGNSQESVTEQDSKDSTYSLSSTLTLSKADYEKHKVYACEVTHQGLSSPVTKSFNRGEC | 106 relative, HeCon Ab = 100 | 38.5 relative, HeCon Ab = 100 |
| GpH7-A5/GpH7-B3 variant (G236_06M)/GpL16-k0 (antibody, human IgG1, kappa, IgG1 heterodimer, mutation in the GpH7-B3 chain only; also called He Ab) heavy 1: not shown heavy 2: not shown light: DIVMTQSPLSLPVTPGEPASISCQASESLVHSNRNTYLHWYLQKPGQSPQLLIYKVSNRFSGVPDRFSGSGSGTDFTLKISRVEAEDVGVYYCSQNTHVPPTFGQGTKVEIERTVAAPSVFIFPPSDEQLKSGTASVVCLLNNFYPREAKVQWKVDNALQSGNSQESVTEQDSKDSTYSLSSTLTLSKADYEKHKVYACEVTHQGLSSPVTKSFNRGEC | 96.7 relative, HeCon Ab = 100 | 45.5 relative, HeCon Ab = 100 |
